# ± gives the uncertainty stated by the source.
# Assay: amyloid nucleation score (Sup35N fusion, yeast selection) (log enrichment); library NNK3; higher = more nucleation; inactive = no reads after selection
# How it was run: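 On medium lacking adenine and uracil, psi-negative yeast expressing peptides of 20 random codons fused to Sup35N were grown 7 days at 30°C after a 24-hour induction with 100 μM copper sulfate. Illumina sequencing of input and output plasmid inserts gave the reads, and sequences under 100 input reads were excluded. The nucleation score is the DiMSum log enrichment of output over input reads, centred on the mode score of non-aggregating sequences.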
row,Substance,amyloid nucleation score
1,QTGLVMWQLTFTYPLHVWNM,inactive
2,QTNLGPFVPSYGCFLCWMEG,inactive
3,QTSMVVDDYCILYVLHWGWG,inactive
4,QTVKHIKICGVCWVSMLMF,2.07 ± 0.086
5,QVILKNMGPNIVSYGLG,inactive
6,QVLFAYIYLSLVNVSQG,1.03 ± 0.14
7,QVNKFCYCMVDKLVVVH,2.27 ± 0.074
8,QVTLWFKKNLSELM,inactive
9,QWCCVTRFIGYSKGYGRKAP,inactive
10,QWFRKLFYLTSLEDAPQIPR,inactive
11,QWIVDFCNCTWEVVRVLRFC,inactive
12,QWSNCDMASAYYAYRNLNAD,inactive
13,QWVSLGLVGVGQ,inactive
14,QYDIVLCGQWYGLSKGLRYS,inactive
15,QYFPDIY,inactive
16,QYVYLCRYLNMRPACYDMVV,-0.329 ± 0.8
17,RACARVLLEVCFLFEFSMST,inactive
18,RACYLF,inactive
19,RAFFDTSCGMSLDPSLIPTG,inactive
20,RAFFLVIAIFNKVEVVSGST,1.15 ± 0.14
21,RAHIPWKRCFV,-1.06 ± 1.9
22,RAKVNSRGCEESFF,-0.007 ± 0.73
23,RALLTGWTMSRPGLFIIATS,-0.273 ± 1.1

row,Substance,amyloid nucleation score
1,RAVTSWYVVRWFIRYNTSNA,inactive
2,RAVYSGVSMD,inactive
3,RAYFGCFQGFILLFSYLMC,inactive
4,RCCLNTVPSAFTGYKNPTVK,inactive
5,RCDRVCGWGDRFNAGSGYRW,inactive
6,RCECVPPNQTRCYQRLASS,inactive
7,RCEFIFS,inactive
8,RCFKLLNSTECCSKWVRAFS,inactive
9,RCGKPVGRTYGLGISIEKAR,inactive
10,RCIGALRTRPSTEGRTSLRI,inactive
11,RCMIVASFYLSLIWKI,inactive
12,RCNALSLWIYNEKSWNNTWY,1.74 ± 0.084
13,RCNLGTAAHFCKY,inactive
14,RCTGRLRTVGRSSMLEFEFV,inactive
15,RCTVSTSGSGGFCPVPRSGM,inactive
16,RDEYYRDRLGIVNLSRCSKS,inactive
17,RDGSM,inactive
18,RDHWNELGRDYGWTLCKKAY,inactive
19,RDRQFSSSDVPGCEVTGRTD,1.04 ± 0.12
20,RDSLFSV,inactive
21,RDVFINPTTGQALNVWACCR,inactive
22,RDWKEDLFFF,inactive
23,RDWLIMSLGVVLVWFLRYQY,inactive

row,Substance,amyloid nucleation score
1,RDYYGVLLNLCLHHFWLHW,inactive
2,REASCGIDRMIRRCTERLSC,inactive
3,RECDFFLWAYYLVNIQLRVQ,-0.27 ± 0.66
4,REEAVWQADFVYLTKSAILN,inactive
5,REWCLEVYHWYITRSHVYWC,inactive
6,REYPYDMYSHLSLFDARHPG,inactive
7,RFACFSRGACFCNRLVMPYD,inactive
8,RFAPFMRGM,-0.784 ± 1.5
9,RFFVNL,inactive
10,RFIEKTSKIMSPDAYPSLKY,inactive
11,RFKCSTNGCRTFRGHHYNVK,inactive
12,RFMSCMGFPHRCHGSSRYVG,inactive
13,RFTSVILNTSDLSKLRMGTE,0.437 ± 0.31
14,RGESHVCLCYL,0.761 ± 0.17
15,RGGRYDFMCDTCSLIVFASV,-0.645 ± 1.1
16,RGIDYSHTL,inactive
17,RGIEVMDLTLARAHKRA,inactive
18,RGNDLIVCCGDRMCFCNALS,inactive
19,RGQFICRCGVARPV,inactive
20,RGQRVSSVMRRTQVGDWNTP,inactive
21,RGSGILRVLTKSRWCICMGT,inactive
22,RGVIPLNSKCKL,inactive
23,RGYGAAHQRRCQRIRNYYKY,inactive

row,Substance,amyloid nucleation score
1,RGYSANWNLMVAVTCGTIH,-0.422 ± 0.71
2,RHQHKRGAV,-0.982 ± 1.4
3,RHRIRWSMRRNWSACVQ,inactive
4,RHWDVLK,inactive
5,RHWTGCSNQESRTGCGACCI,inactive
6,RIFWHQCGYGSIRLWGQLDR,-0.531 ± 0.83
7,RIFYKVDTDGIIIIVYS,inactive
8,RIGAPKRRSRTWKNPAWTGQ,inactive
9,RIKFNHTAFNWFQIF,1.69 ± 0.091
10,RIKYS,inactive
11,RILERVATQWRYGRCPMCDR,inactive
12,RILHFTICPNQWTRYKVDS,inactive
13,RINWTMMCKTFLRFINKS,inactive
14,RIPKDEYTNPGRA,inactive
15,RIRALLD,inactive
16,RISLCVHFILFCFPSSRQSL,0.815 ± 0.12
17,RISYMSGDYRPSKCACVYAE,inactive
18,RIYGHVLSRDANFVRLWVGT,inactive
19,RKACYLLVI,inactive
20,RKCCGVLSLSASLHDRDDGC,inactive
21,RKGSVKEFRYNMSNLESVCS,inactive
22,RKIHLLGHWLFRSMYRRRFW,inactive
23,RKIHVAMVLRIEYSMYGSPA,inactive

row,Substance,amyloid nucleation score
1,RKLFGSHS,inactive
2,RKLGPSHQWNHRWGFSVRSC,inactive
3,RKNSDLTYSNSVNLTCACRT,0.434 ± 0.18
4,RKVNHFNE,inactive
5,RKWSNR,inactive
6,RLCHRWFLDRLTICY,inactive
7,RLCNHKILDPACVLTSQVPI,inactive
8,RLDVFYEMLIMYKEQYGMVR,inactive
9,RLFLTVHPTDSILENEAV,inactive
10,RLFMDLYVFTTRVFNIFQFV,inactive
11,RLGRSLRLIVMITG,inactive
12,RLITNNVTS,inactive
13,RLIWVDLALMFMFMYFLVRQ,inactive
14,RLKCHNNMNYSSYDLH,inactive
15,RLLDGMTSVLC,inactive
16,RLLHCGRILWGFVNDLMIML,inactive
17,RLLIMSGNNGLLGPSYNAIV,-0.01 ± 0.78
18,RLLVTLQ,inactive
19,RLMVL,inactive
20,RLSGKTPCAK,inactive
21,RLSLKSFVRFQRLCP,inactive
22,RLTARLINGMDY,1.27 ± 0.1
23,RLTHLLHCYTI,inactive

row,Substance,amyloid nucleation score
1,RLTTNTIVKDSISRFRN,0.183 ± 0.29
2,RLVRIW,inactive
3,RLVVNQHSPDKP,inactive
4,RLWHLLFLHNRYHVVFNSIL,inactive
5,RLWWS,-0.186 ± 0.98
6,RLYYRLQTKQAVWCNHPAPT,inactive
7,RMFNDSLNRV,inactive
8,RMILFFVARSSKMGIGTFGF,0.868 ± 0.21
9,RMLDG,inactive
10,RMMCARIFRVSWLSSCLEGG,inactive
11,RMNMCMWLAWDSPWYIMGY,inactive
12,RMPAFLCGYC,inactive
13,RMRKSFLFVWIDFILKR,inactive
14,RMRLSWVMHSV,inactive
15,RMTVKQMLYHDWCTVRPSYC,inactive
16,RMVDFADF,inactive
17,RNCQRESGTLYNYHVARS,inactive
18,RNFGYIDSKLWP,inactive
19,RNKHYVGRQSVSDSRVLSIV,inactive
20,RNKLALVLKLAHSI,inactive
21,RNKVHRNG,inactive
22,RNLLRSTLKGYFWYSCNVDV,inactive
23,RNMEPDASVATV,inactive

row,Substance,amyloid nucleation score
1,RNNSNEKSFLRQSYYHCDCF,2.73 ± 0.07
2,RNQFWTWYGVSMLSNRQHGK,inactive
3,RNRWPLPRYICRFKGFSHVV,inactive
4,RNSMGVILKVCLGRN,1.66 ± 0.091
5,RNSVFLCKGIQVYLVLVIVV,inactive
6,RNVTRGYYMYFKRMVRHYWG,inactive
7,RNWLMANS,inactive
8,RPGYHSVVKHAKRLVEVNR,inactive
9,RPHRAWALAVRVASDVCQNS,1.11 ± 0.11
10,RPKPNRSRTIASQLETKSGW,-0.727 ± 1.1
11,RPKTTH,inactive
12,RPRNLSLASYTDSVMRFGLS,inactive
13,RPYGFKAIVYGQCR,inactive
14,RPYSNQGGTLITSAVLGLTK,inactive
15,RQCGVVIKFLMISTLISSIA,inactive
16,RQILSFWP,inactive
17,RQLMRSDPAMGTICERY,inactive
18,RQNVWTLVPLVKFRLSNTQT,inactive
19,RRAMIGIFSITVRFADNGWK,inactive
20,RRFKQCNHILACR,inactive
21,RRFVNVLGMHC,0.693 ± 0.16
22,RRLSSHLFMLWYMVR,inactive

# From the supplement of paper PMC12042874
